What was measured:
[1] = system: HCAVSMCs; assay: Flow cytometric intracellular uptake, retention and half-life (2 h treatment); conditions: fluorescence 0 and 5 days after treatment removal; listed as MK2i
Description: HCAVSMCs were grown to 80-90% confluence, harvested, and seeded at 20,000 cells/well in a 24 well plate and allowed to adhere overnight in low serum media (DMEM, 1% FBS, and 1% P/S). […] Following treatment, cells were washed with PBS −/−, washed with CellScrub buffer (Genlantis) for 10 minutes at room temperature to remove extracellular polyplexes and/or peptide, washed 2× in PBS −/−, and given fresh complete growth media. Cells were then incubated for an additional 0, 12, 24, 72, or 120 hours. Cells were then washed with PBS −/−, trypsinized, and resuspended in 0.1% Trypan blue in PBS (−/−) for analysis on a FACSCalibur flow cytometer (Becton Dickinson) with BD CellQuest™ Pro software (V 5.2). Data was exported and analyzed with FlowJo software (V 7.6.4). All samples were run in triplicate.

[2] = molecular target: JNK1α1(h) (Homo sapiens, UniProt P45983); assay: Kinase Profiling Assay; format: biochemical
[3] = system: HCAVSMCs; assay: Flow cytometric uptake and retention of MK2i-NPs and p-HSP20-NPs (30 min treatment); conditions: 3 days after treatment removal
Description: For MK2i-NP and HSP20-NP studies, An amine-reactive Alexa-488 succinimidyl ester (Life Technologies) was dissolved in DMSO and mixed at a 1 to 3 molar ratio with the MK2i or p-HSP20 peptide in 100 mM sodium bicarbonate buffer (pH=8.3) and allowed to react for 3 hours. Unreacted fluorophore and organic solvent were removed using a PD-10 miditrap G-10 desalting column, and the fluorescently labeled MK2i and p-HSP20 peptides were lyophilized. […] Similarly, PPAA was mixed with fluorescently labeled p-HSP20 at a CR of [NH3^+]/[COO^−]=1:3 and syringe filtered through a 0.45 μm PTFE filter to form fluorescent HSP20-NPs. HCAVSMCs were grown to 80-90% confluence, harvested, and seeded at 20,000 cells/well in a 24 well plate and allowed to adhere overnight. […] Following treatment, cells were washed 2× in PBS, and either immediately harvested or incubated in complete growth media for an additional 72 hours. Cells were harvested with 0.05% trypsin-EDTA, centrifuged, and suspended in 0.1% Trypan blue in PBS (−/−) for analysis on a FACSCalibur flow cytometer (Becton Dickinson) with BD CellQuest™ Pro software (V 5.2). Data was exported and analyzed with FlowJo software (V 7.6.4). All samples were run in triplicate.

[4] = molecular target: FGFR2(N549H)(h) (Homo sapiens, UniProt P21802, N549H); assay: Kinase Profiling Assay; format: biochemical
Chain of FGFR2(N549H)(h) (P21802 22-821 N549H): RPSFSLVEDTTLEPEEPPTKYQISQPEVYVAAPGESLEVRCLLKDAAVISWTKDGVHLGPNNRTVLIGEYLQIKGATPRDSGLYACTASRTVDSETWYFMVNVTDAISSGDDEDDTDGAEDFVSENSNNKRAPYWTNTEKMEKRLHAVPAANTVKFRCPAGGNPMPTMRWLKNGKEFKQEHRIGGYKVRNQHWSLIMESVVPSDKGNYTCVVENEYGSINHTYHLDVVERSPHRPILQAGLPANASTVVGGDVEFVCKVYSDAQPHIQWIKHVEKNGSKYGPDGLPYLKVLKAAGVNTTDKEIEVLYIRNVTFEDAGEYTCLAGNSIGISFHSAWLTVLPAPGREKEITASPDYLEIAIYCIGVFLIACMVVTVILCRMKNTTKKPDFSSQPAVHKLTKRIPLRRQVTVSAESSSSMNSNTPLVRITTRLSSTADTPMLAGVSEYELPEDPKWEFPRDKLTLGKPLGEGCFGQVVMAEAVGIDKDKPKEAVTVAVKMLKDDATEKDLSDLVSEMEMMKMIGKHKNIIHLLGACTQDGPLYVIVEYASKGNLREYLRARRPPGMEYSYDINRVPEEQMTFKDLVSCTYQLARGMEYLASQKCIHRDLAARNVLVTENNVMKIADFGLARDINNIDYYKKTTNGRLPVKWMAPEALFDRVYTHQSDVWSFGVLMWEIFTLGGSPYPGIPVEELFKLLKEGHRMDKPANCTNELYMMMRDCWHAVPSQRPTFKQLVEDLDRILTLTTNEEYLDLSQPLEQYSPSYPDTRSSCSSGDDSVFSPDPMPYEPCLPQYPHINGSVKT

[5] = molecular target: CLK2(h) (Homo sapiens, UniProt P49760); assay: Kinase Profiling Assay; format: biochemical; conditions: 100 μM
Chain of CLK2(h) (P49760 whole entry): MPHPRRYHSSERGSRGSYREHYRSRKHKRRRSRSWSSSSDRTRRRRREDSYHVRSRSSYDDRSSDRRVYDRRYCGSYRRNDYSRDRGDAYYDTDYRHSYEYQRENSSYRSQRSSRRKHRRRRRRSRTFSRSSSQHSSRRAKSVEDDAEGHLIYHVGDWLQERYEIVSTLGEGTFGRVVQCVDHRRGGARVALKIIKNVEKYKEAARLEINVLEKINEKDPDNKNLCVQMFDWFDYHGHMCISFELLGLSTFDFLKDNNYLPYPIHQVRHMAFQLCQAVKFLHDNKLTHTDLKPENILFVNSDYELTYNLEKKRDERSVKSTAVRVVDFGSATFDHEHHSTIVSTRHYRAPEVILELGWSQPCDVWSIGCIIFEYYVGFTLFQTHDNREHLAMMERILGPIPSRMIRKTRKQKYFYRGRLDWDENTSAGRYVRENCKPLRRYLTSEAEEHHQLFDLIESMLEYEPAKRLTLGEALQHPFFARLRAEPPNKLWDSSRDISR

[6] = molecular target: CDK2/cyclinA(h) (Homo sapiens, UniProt P24941); assay: Kinase Profiling Assay; format: biochemical; conditions: 100 μM
[7] = molecular target: MEK1(h) (Homo sapiens, UniProt Q02750); assay: Kinase Profiling Assay; format: biochemical; conditions: 100 μM
[8] = molecular target: Ab1(Y253F)(h) (Homo sapiens, UniProt P00519, Y253F); assay: Kinase Profiling Assay; format: biochemical; conditions: 100 μM
[9] = molecular target: T1, DDR2(h) (Homo sapiens, UniProt Q16832); assay: Kinase Profiling Assay; format: biochemical; conditions: 100 μM
T1 sequence (Q16832 22-855): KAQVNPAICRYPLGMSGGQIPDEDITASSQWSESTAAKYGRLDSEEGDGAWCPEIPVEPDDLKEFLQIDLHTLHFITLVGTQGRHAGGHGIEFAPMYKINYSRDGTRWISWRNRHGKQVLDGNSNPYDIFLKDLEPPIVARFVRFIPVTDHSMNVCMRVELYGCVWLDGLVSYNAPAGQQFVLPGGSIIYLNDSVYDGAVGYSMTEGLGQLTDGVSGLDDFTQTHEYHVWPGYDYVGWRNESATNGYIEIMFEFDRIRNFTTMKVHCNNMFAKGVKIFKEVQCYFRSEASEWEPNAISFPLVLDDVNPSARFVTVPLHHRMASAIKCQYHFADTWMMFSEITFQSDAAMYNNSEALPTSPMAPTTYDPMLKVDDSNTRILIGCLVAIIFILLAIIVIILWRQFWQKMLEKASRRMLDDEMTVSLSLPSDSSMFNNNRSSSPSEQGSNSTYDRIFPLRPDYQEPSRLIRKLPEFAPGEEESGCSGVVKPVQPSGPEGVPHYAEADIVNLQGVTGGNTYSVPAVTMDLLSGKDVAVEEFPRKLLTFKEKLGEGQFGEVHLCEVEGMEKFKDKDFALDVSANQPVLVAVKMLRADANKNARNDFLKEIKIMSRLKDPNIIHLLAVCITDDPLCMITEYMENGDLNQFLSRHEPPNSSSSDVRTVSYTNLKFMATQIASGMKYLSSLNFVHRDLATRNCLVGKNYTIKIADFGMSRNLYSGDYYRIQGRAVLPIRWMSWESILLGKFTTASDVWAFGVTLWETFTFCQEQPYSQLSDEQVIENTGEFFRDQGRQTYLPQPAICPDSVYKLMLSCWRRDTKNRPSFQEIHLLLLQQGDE

[10] = molecular target: T2, CHK1(h) (Homo sapiens, UniProt O14757); assay: Kinase Profiling Assay; format: biochemical; conditions: 100 μM
T2 sequence (O14757 1-476): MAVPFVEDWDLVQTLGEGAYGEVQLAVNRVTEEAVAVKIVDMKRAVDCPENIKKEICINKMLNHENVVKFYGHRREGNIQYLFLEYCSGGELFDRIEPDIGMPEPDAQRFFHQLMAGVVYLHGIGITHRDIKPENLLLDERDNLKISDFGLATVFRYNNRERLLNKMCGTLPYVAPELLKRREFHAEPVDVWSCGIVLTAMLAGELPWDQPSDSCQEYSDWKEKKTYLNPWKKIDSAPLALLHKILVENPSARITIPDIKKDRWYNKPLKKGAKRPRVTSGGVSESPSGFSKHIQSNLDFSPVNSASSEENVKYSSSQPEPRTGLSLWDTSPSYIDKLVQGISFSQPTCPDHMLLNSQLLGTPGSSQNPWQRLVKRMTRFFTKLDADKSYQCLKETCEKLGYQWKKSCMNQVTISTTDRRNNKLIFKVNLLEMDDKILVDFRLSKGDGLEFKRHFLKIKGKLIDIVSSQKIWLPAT

[11] = molecular target: T3, IKKβ(h) (Homo sapiens, UniProt O14920); assay: Kinase Profiling Assay; format: biochemical; conditions: 100 μM
T3 sequence (O14920 1-756): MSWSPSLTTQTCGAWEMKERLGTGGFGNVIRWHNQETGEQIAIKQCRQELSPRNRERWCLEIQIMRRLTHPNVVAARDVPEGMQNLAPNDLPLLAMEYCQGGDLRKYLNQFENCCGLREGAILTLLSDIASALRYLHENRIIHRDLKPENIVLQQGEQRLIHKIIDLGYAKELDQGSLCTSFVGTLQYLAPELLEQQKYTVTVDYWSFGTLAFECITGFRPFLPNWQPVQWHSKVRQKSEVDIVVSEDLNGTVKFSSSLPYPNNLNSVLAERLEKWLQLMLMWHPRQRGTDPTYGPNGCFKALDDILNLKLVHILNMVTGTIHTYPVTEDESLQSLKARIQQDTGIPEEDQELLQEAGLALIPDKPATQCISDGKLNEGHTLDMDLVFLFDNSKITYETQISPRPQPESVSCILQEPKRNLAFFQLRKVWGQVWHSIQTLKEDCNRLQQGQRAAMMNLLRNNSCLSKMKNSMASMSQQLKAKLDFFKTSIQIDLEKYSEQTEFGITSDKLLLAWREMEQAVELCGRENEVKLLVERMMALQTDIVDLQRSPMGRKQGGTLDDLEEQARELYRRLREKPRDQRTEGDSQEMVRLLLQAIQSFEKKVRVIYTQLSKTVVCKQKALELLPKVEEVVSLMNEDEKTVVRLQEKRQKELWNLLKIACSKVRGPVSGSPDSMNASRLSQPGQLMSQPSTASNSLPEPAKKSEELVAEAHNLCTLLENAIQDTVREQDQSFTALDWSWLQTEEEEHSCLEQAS

[12] = molecular target: ROCK-I(h) (Homo sapiens, UniProt Q13464); assay: Kinase Profiling Assay; format: biochemical; conditions: 100 μM
Chain of ROCK-I(h) (Q13464 whole entry): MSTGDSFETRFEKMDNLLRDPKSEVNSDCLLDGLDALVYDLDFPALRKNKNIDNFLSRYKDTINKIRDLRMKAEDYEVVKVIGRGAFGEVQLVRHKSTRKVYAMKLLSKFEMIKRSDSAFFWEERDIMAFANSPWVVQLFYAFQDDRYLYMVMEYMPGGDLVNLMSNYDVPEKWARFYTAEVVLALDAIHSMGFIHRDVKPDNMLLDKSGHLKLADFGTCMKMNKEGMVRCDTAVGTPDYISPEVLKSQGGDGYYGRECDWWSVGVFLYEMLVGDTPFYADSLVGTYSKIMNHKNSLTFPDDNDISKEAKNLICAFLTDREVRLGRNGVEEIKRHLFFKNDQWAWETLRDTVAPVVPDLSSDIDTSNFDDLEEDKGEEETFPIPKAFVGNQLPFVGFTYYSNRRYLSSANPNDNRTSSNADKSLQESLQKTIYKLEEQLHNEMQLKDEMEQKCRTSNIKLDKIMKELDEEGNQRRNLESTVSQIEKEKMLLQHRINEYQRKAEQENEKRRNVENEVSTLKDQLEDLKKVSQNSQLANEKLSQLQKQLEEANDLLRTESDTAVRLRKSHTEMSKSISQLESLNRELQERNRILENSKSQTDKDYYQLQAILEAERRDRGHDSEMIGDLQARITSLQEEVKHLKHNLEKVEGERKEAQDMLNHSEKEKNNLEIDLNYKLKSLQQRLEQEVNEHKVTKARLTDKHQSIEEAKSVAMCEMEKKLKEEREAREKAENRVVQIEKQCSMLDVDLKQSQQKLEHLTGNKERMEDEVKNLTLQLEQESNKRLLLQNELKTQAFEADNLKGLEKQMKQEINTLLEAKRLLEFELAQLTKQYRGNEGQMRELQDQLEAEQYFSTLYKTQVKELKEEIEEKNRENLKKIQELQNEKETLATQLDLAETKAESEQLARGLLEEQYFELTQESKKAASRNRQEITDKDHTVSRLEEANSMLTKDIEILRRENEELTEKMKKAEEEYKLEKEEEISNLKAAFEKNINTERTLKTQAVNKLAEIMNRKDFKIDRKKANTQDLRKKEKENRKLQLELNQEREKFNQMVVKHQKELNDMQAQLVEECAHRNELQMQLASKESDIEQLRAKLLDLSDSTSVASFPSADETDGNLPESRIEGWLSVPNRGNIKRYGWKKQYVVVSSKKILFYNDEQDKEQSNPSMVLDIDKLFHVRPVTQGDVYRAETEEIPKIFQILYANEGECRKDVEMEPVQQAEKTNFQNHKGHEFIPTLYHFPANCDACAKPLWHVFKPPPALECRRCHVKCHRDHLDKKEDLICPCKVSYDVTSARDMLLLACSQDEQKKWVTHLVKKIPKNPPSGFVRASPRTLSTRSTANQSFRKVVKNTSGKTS

[13] = molecular target: SIK(h) (Homo sapiens, UniProt P57059); assay: Kinase Profiling Assay; format: biochemical; conditions: 100 μM
Chain of SIK(h) (P57059 whole entry): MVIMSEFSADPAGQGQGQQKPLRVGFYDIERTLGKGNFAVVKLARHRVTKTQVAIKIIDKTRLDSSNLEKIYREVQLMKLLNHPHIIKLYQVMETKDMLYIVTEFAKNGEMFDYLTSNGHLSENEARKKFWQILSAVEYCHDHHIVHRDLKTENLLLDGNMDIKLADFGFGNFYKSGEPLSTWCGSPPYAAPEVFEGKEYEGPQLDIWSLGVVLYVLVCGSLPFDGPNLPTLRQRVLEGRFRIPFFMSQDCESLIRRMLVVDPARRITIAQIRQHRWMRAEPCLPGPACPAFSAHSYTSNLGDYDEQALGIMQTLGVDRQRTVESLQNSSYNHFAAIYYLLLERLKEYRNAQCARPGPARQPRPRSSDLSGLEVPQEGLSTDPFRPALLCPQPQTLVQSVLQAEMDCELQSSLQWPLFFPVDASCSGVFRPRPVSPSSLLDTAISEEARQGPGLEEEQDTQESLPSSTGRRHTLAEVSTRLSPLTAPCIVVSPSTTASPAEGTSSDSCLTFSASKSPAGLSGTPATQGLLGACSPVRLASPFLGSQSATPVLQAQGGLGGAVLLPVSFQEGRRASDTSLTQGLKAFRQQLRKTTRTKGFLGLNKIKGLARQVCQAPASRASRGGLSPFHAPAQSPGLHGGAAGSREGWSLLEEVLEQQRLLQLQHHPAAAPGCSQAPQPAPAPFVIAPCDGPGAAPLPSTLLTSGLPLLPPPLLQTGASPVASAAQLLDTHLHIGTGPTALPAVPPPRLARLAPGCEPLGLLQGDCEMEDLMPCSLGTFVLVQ

[14] = molecular target: Ab1(H396P)(h) (Homo sapiens, UniProt P00519, H396P); assay: Kinase Profiling Assay; format: biochemical; conditions: 100 μM
[15] = molecular target: c-RAF(h) (Homo sapiens, UniProt P04049); assay: Kinase Profiling Assay; format: biochemical; conditions: 100 μM

Chain of JNK1α1(h) (P45983 1-384 isoform P45983-2): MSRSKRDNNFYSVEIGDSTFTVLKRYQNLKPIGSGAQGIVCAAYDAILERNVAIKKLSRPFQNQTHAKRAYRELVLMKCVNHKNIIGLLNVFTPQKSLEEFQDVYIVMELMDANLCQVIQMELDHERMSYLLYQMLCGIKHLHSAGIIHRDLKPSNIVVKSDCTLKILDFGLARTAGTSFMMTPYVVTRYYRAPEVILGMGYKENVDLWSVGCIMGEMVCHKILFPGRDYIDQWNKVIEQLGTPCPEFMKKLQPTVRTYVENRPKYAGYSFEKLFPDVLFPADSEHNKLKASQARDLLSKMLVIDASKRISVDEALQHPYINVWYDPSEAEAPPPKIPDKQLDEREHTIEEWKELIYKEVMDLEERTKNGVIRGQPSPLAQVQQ

H-YARAAARQARAKALARQLGVAA-OH [MMI-0100]
intracellular half-life (t1/2) [1]: 98.4 h
activity at 100 µM [2]: 91%
intracellular peptide retention (% of initial uptake remaining) [3]: 54%
activity at 100 µM [4]: 95%

YARAAARQARAKALNRQLGVA (Mammalian) [MMI-0200]
% activity [5]: 97%

HRRIKAWLKKIKALARQLGVAA (Mammalian) [MMI-0500]
% activity [6]: 87%
% activity [7]: 21%
% activity [8]: 29%
% activity [9]: 79%
% activity [10]: 65%
% activity [11]: 71%
% activity [12]: 17%
% activity [13]: 40%
% activity [14]: 51%
% activity [15]: 19%
